This test deals with T1, refolded IL-7Rα ectodomain (human, UniProt P16871-1 21-239).
T1 construct: extracellular fragment of human IL-7Rα, NP_002176.2, residues 21-239; His tag removed with thrombin; also called IL-7Rα ectodomain (E. coli); not shown: His6, N-terminal, cleaved
T1 sequence (looked up): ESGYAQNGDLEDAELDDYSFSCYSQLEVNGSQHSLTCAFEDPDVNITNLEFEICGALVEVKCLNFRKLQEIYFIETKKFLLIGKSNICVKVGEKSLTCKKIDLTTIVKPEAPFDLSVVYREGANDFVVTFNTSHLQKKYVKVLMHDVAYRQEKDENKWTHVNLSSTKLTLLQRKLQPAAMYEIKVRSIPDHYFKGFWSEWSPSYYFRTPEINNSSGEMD
Briefly: crystal structure; TSLP^Δ127–131:TSLPR^N47Q:IL-7Rα complex; 0.02 M citric acid, 0.08 M BIS-TRIS propane pH 8.8, 16% PEG 3,350, 293 K; 2.55 Å. Conditions: both partners purified.

B1: TSLPR^N47Q (domain or fragment, human, UniProt Q9HC73-1 23-221, looked up)
chain: QGGAAEGVQIQIIYFNLETVQVTWQASKYSRTNLTFHYRFNGDEAYDQCTNYLLQEGHTSGCLLDAEQRDDILYFSIRNGTHPVFTASRWMVYYLKPSSPKHVRFSWHQDAVTVTCSDLSYGDLLYEVQYRSPFDTEWQSKQENTCNVTIEGLDAEKCYSFWVRVKAMEDVYGPDTYPSDWSEVTCWQRGEIRDACAET
notes: signal peptide in the construct; extracellular fragment of human TSLPR, NP_071431.2, residues 1-221, N-glycosylation mutant N47Q; also called EndoH-treated TSLPR^N47Q
Regarding B1, the binding result is listed as “binds”.

The values are drawn from paper PMC5382266 (Nature Communications, 2017).
